Some targets named below: Lsm6/5/7 (human, UniProt P62312;Q9Y4Y9;Q9UK45); SmD1/D2 (human, UniProt P62314;P62316); SmF/E/G (human, UniProt P62306;P62304;P62308).
Assay in all cases: pull-down

Chain of Lsm6/5/7 (Q9Y4Y9 whole entry, chain 2 of 2): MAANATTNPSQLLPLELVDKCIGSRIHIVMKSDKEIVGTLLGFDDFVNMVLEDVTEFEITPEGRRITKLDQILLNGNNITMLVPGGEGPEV
Chain of Lsm6/5/7 (Q9UK45 whole entry, chain 3 of 2): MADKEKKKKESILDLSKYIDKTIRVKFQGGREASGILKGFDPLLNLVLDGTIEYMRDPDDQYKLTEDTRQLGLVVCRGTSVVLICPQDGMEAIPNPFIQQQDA

B1: Lsm2/3 (complex)
chain 1: MLFYSFFKSLVGKDVVVELKNDLSICGTLHSVDQYLNIKLTDISVTDPEKYPHMLSVKNCFIRGSVVRYVQLPADEVDTQLLQDAARKEALQQKQ
chain 2: not shown
Regarding B1, the binding result with Lsm6/5/7 is reported as “binds”.

B2: His-tagged Gemin2/MBP-SMN(26-62) (complex)
chain 1: FDPSVPPRTPQEYLRRVQIEAAQCPDVVVAQIDPKKLKRKQSVNISLSGCQPAPEGYSPTLQWQQQQVAQFSTVRQNVNKHRSHWKSQQLDSNVTMPKSEDEEGWKKFCLGEKLCADGAVGPATNESPGIDYVQIGFPPLLSIVSRMNQATVTSVLEYLSNWFGERDFTPELGRWLYALLACLEKPLLPEAHSLIRQLARRCSEVRLLVDSKDDERVPALNLLICLVSRYFDQRDLADEPS
chain 2: GQSDDSDIWDDTALIKAYDKAVASFKHALKNGDICET
On to B2, for which the binding result with SmD1/D2 and with SmF/E/G was “binds” in each case.

The record behind these values is PMC12117405 (Nucleic Acids Research, 2025).
